Reference: patent US20020142976

Test system: IDH22

Chain of ATR (chain, as listed by the source): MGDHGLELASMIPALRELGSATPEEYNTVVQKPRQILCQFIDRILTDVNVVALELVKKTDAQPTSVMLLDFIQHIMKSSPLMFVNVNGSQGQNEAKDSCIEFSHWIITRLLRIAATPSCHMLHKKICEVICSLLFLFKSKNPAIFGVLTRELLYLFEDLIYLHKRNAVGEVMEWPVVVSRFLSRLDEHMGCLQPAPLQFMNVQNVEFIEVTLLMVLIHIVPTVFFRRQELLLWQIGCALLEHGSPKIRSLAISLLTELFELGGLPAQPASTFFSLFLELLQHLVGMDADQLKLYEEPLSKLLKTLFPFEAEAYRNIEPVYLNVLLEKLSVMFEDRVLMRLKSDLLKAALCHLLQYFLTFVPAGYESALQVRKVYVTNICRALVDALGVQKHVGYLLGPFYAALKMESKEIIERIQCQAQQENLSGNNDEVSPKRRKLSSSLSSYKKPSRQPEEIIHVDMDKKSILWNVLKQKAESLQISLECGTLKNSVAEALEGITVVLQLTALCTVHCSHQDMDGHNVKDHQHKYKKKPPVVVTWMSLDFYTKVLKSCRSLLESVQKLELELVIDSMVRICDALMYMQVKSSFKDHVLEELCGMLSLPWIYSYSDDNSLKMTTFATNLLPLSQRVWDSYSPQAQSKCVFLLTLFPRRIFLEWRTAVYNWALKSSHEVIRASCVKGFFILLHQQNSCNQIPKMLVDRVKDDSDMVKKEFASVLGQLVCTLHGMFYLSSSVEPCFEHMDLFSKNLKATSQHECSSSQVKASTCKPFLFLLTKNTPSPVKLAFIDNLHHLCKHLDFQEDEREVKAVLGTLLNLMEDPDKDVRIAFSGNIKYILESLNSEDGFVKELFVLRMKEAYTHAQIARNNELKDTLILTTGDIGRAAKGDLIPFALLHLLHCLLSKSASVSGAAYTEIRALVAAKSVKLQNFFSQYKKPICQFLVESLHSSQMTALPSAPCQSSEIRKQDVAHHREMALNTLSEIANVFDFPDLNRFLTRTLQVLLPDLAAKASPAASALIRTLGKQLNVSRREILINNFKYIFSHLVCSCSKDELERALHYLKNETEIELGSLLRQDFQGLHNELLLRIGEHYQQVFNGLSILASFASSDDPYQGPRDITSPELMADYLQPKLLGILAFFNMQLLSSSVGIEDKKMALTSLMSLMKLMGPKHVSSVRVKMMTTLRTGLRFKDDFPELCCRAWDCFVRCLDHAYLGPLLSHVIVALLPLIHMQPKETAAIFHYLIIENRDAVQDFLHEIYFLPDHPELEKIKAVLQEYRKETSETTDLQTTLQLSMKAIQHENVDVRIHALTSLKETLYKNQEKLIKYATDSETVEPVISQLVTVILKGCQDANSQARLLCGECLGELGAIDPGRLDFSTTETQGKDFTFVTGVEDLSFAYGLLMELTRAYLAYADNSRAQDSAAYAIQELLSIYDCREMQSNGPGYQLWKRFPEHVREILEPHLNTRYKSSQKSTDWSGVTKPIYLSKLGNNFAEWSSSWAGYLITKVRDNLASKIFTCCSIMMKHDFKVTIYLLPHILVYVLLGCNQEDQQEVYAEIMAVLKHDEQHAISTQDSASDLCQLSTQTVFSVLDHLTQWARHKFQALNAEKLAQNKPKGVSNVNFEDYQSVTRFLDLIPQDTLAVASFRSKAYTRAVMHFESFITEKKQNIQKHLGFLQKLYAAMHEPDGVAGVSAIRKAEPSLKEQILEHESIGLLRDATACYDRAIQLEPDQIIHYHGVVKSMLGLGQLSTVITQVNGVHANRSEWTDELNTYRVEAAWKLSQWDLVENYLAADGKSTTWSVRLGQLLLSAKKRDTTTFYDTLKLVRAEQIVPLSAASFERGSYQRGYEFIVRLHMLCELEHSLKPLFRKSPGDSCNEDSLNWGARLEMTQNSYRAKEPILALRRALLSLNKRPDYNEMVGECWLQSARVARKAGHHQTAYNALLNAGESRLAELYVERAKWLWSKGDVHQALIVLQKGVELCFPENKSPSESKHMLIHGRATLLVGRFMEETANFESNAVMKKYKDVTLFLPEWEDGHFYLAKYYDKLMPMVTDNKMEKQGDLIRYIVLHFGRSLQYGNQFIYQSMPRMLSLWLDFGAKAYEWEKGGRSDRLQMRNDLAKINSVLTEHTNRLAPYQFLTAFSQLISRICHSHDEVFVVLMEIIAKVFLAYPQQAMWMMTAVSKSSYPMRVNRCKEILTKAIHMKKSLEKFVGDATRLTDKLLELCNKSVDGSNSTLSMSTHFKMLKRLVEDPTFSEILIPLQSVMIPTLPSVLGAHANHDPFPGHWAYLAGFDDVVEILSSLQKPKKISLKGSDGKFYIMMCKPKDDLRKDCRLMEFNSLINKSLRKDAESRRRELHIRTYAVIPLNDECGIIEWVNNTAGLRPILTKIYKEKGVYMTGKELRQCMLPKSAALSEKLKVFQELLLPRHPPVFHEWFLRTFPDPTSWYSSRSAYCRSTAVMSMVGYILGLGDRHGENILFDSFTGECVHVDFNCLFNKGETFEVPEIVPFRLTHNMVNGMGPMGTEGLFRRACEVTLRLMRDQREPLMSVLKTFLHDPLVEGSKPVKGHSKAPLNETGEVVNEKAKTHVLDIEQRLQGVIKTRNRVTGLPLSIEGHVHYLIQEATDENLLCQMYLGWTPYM

ATR
phosphorylation of peptide substrate (32P kinase assay, plate-captured ATR): ATR phosphorylated IDH22
